Measured values as given in patent US20240342215A1 (Regeneron, published 2024).

Tests used:
[1] = molecular target: human CD33 on tumor cells (A549.CD33; A549 electroporated with CD33 mRNA; HL-60, Kasumi1, OCI-AML3) (human, UniProt P20138 18-364); test: cell-based or functional assay
[2] = molecular target: MAGEA4 peptide presented by HLA-A2 on tumor cells (A549 transduced with MAGEA4 and HLA-A2; A549 pulsed with …); test: cell-based or functional assay
[3] = molecular target: T1, His labeled CD33-Fc reagent (Acros) (UniProt P20138 18-259); test: flow cytometry; CD33-Fc staining of transduced T cells, APC labeled streptavidin secondary
T1 construct: Secondary staining was with APC labeled streptavidin; not shown: Fc part and His label of the bought reagent
T1 sequence (P20138 18-259): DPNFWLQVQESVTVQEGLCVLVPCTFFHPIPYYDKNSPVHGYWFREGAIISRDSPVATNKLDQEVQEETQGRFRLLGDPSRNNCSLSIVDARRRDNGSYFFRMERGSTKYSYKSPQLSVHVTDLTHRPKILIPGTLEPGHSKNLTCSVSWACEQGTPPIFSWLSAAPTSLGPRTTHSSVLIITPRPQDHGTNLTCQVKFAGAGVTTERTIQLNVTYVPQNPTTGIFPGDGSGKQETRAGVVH

[4] = molecular target: T2, PE labeled BCMA Fc reagent (AcroBio) (UniProt Q02223 1-54, PE label); test: flow cytometry; PE labeled BCMA Fc staining of transduced T cells
T2 construct: not shown: Fc part of the bought reagent
T2 sequence (looked up): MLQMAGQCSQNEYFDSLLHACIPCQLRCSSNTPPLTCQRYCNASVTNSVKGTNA
Description: T cells were interrogated for cell surface CAR expression using flow cytometry. T cells were stained using a PE labeled BCMA Fc reagent (AcroBio). […] IL2 secretion of scFv-TCR was greater than anti-BCMA CAR in coculture with medium and low BCMA expressing cell lines (FIG. 21C). […] For Live-cell imaging by IncuCyte was used to analyze tumor cell growth of HT1080.BCMA stably transduced with red reporter. The HT1080.BCMA cells grew in the presence of UTD T cells and MAGEA4 TCR-T cells.

human CD33 on tumor cells (A549.CD33; A549 electroporated with CD33 mRNA; HL-60, Kasumi1, OCI-AML3), sequence (P20138 18-364): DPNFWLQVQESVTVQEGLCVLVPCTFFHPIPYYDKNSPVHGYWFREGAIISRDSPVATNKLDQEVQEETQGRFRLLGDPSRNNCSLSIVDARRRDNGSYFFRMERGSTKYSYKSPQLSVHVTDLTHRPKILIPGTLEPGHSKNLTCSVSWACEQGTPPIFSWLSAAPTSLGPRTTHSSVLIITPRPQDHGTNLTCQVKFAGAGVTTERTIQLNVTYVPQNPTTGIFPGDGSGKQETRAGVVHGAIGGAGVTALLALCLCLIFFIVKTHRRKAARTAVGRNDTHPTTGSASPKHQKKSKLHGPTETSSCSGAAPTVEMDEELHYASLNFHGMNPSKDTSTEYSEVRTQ

B1: VHH-TCR with a VHH added to the TRB separated by a marsupial mu linker (LEKT); CD33.VHH-mLNK-TRB-P2A-TRA (SEQ ID NO: 91) (TCR)
TCR beta: EVQLVESGGGEVQPGGSLRLSCAASRSSGIDVMGWYRQAPGKERELVAEISGVGDTNYAASLADRFTVSRDNAKNTVYLQMSSLRAEDTAVYYCNAHSFLDLVGAWGQGTLVTVKPLEKTDSGVTQTPKHLITATGQRVTLRCSPRSGDLSVYWYQQSLDQGLQFLIQYYNGEERAKGNILERFSAQQFPDLHSELNLSSLELGDSALYFCASSGGDGDEQFFGPGTRLTVLEDLKNVFPPEVAVFEPSKAEIAHTQKATLVCLATGFYPDHVELSWWVNGKEVHSGVSTDPQPLKEQPALNDSRYCLSSRLRVSATFWQNPRNHFRCQVQFYGLSENDEWTQDRAKPVTQIVSAEAWGRADCGITSASYHQGVLSATILYEILLGKATLYAVLVSALVLMAMVKRKDSRG
TCR alpha: AQKITQTQPGMFVQEKEAVTLDCTYDTSDPSYGLFWYKQPSSGEMIFLIYQGSYDQQNATEGRYSLNFQKARKSANLVISASQLGDSAMYFCAMSGGYTGGFKTIFGAGTRLFVKANIQNPDPAVYQLRDSKSSDKSVCLFTDFDSQTNVSQSKDSDVYITDKTVLDMRSMDFKSNSAVAWSNKSDFACANAFNNSIIPEDTFFPSSDVPCDVKLVEKSFETDTNLNFQNLLVIVLRILLLKVAGFNLLMTLRLWSS
interferon gamma production [1]: > 2 fold

B2: VHH-TCR with a VHH added to the TRB separated by a mu linker+G4S; CD33.VHH-mLNK.1xG4S-TRB-P2A-TRA (SEQ ID NO: 92) (TCR)
TCR beta: EVQLVESGGGEVQPGGSLRLSCAASRSSGIDVMGWYRQAPGKERELVAEISGVGDTNYAASLADRFTVSRDNAKNTVYLQMSSLRAEDTAVYYCNAHSFLDLVGAWGQGTLVTVKPLEKTGGGGSDSGVTQTPKHLITATGQRVTLRCSPRSGDLSVYWYQQSLDQGLQFLIQYYNGEERAKGNILERFSAQQFPDLHSELNLSSLELGDSALYFCASSGGDGDEQFFGPGTRLTVLEDLKNVFPPEVAVFEPSKAEIAHTQKATLVCLATGFYPDHVELSWWVNGKEVHSGVSTDPQPLKEQPALNDSRYCLSSRLRVSATFWQNPRNHFRCQVQFYGLSENDEWTQDRAKPVTQIVSAEAWGRADCGITSASYHQGVLSATILYEILLGKATLYAVLVSALVLMAMVKRKDSRG
TCR alpha: B1 TCR alpha
interferon gamma production [1]: > 2 fold

B3: VHH-TCR with a VHH added to the TRA separated by a mu linker (LEKT)+G4S; TRB-P2A-CD33.VHH-mLNK.1xG4S-TRA (SEQ ID NO: 94) (TCR)
TCR beta: DSGVTQTPKHLITATGQRVTLRCSPRSGDLSVYWYQQSLDQGLQFLIQYYNGEERAKGNILERFSAQQFPDLHSELNLSSLELGDSALYFCASSGGDGDEQFFGPGTRLTVLEDLKNVFPPEVAVFEPSKAEIAHTQKATLVCLATGFYPDHVELSWWVNGKEVHSGVSTDPQPLKEQPALNDSRYCLSSRLRVSATFWQNPRNHFRCQVQFYGLSENDEWTQDRAKPVTQIVSAEAWGRADCGITSASYHQGVLSATILYEILLGKATLYAVLVSALVLMAMVKRKDSRG
TCR alpha: EVQLVESGGGEVQPGGSLRLSCAASRSSGIDVMGWYRQAPGKERELVAEISGVGDTNYAASLADRFTVSRDNAKNTVYLQMSSLRAEDTAVYYCNAHSFLDLVGAWGQGTLVTVKPLEKTGGGGSAQKITQTQPGMFVQEKEAVTLDCTYDTSDPSYGLFWYKQPSSGEMIFLIYQGSYDQQNATEGRYSLNFQKARKSANLVISASQLGDSAMYFCAMSGGYTGGFKTIFGAGTRLFVKANIQNPDPAVYQLRDSKSSDKSVCLFTDFDSQTNVSQSKDSDVYITDKTVLDMRSMDFKSNSAVAWSNKSDFACANAFNNSIIPEDTFFPSSDVPCDVKLVEKSFETDTNLNFQNLLVIVLRILLLKVAGFNLLMTLRLWSS
interferon gamma production [1]: > 2 fold
interferon gamma production [2]: ~3 fold

B4: engineered dual-targeting TCR (VHH-TCR): MAGEA4-reactive, HLA-A2-restricted TCR embedded with a VHH targeting human CD33; TRB-P2A-CD33.VHH-mLNK-TRA (SEQ ID NO: … (TCR)
TCR beta: B3 TCR beta
TCR alpha: EVQLVESGGGEVQPGGSLRLSCAASRSSGIDVMGWYRQAPGKERELVAEISGVGDTNYAASLADRFTVSRDNAKNTVYLQMSSLRAEDTAVYYCNAHSFLDLVGAWGQGTLVTVKPLEKTAQKITQTQPGMFVQEKEAVTLDCTYDTSDPSYGLFWYKQPSSGEMIFLIYQGSYDQQNATEGRYSLNFQKARKSANLVISASQLGDSAMYFCAMSGGYTGGFKTIFGAGTRLFVKANIQNPDPAVYQLRDSKSSDKSVCLFTDFDSQTNVSQSKDSDVYITDKTVLDMRSMDFKSNSAVAWSNKSDFACANAFNNSIIPEDTFFPSSDVPCDVKLVEKSFETDTNLNFQNLLVIVLRILLLKVAGFNLLMTLRLWSS
interferon gamma production [2]: ~3 fold

B5: VHH-TCR with a VHH added to the TRA separated by a 2xG4S; TRB-P2A-CD33.VHH-2xG4S-TRA (SEQ ID NO: 96) (TCR)
TCR beta: B3 TCR beta
TCR alpha: EVQLVESGGGEVQPGGSLRLSCAASRSSGIDVMGWYRQAPGKERELVAEISGVGDTNYAASLADRFTVSRDNAKNTVYLQMSSLRAEDTAVYYCNAHSFLDLVGAWGQGTLVTVKPGGGGSGGGGSAQKITQTQPGMFVQEKEAVTLDCTYDTSDPSYGLFWYKQPSSGEMIFLIYQGSYDQQNATEGRYSLNFQKARKSANLVISASQLGDSAMYFCAMSGGYTGGFKTIFGAGTRLFVKANIQNPDPAVYQLRDSKSSDKSVCLFTDFDSQTNVSQSKDSDVYITDKTVLDMRSMDFKSNSAVAWSNKSDFACANAFNNSIIPEDTFFPSSDVPCDVKLVEKSFETDTNLNFQNLLVIVLRILLLKVAGFNLLMTLRLWSS
notes: also called VHH-TCR with 2G4S; VHH-TCR with two G4Ss
binding result [3]: binds

B6: MAGEA4-reactive, HLA-A2-restricted TCR embedded with tandem VHHs targeting human CD33 and CLL1; TRB-P2A-CLL1-CD33.VHH-mLNK.1xG4S-TRA (SEQ ID NO: 97) (TCR)
TCR beta: B3 TCR beta
TCR alpha: EVQLVESGGGEVQPGGSLRLSCAASGFLFSIYDMNWYRQAPGKEREWVAGITNNGYSTAYAESVKGRFTISRDNAKNTIYLQMSSLRAEDTAVYYCHADLTKAYDVEYAWGQGTLVTVKPGGGGSGGGGSEVQLVESGGGEVQPGGSLRLSCAASRSSGIDVMGWYRQAPGKERELVAEISGVGDTNYAASLADRFTVSRDNAKNTVYLQMSSLRAEDTAVYYCNAHSFLDLVGAWGQGTLVTVKPLEKTGGGGSAQKITQTQPGMFVQEKEAVTLDCTYDTSDPSYGLFWYKQPSSGEMIFLIYQGSYDQQNATEGRYSLNFQKARKSANLVISASQLGDSAMYFCAMSGGYTGGFKTIFGAGTRLFVKANIQNPDPAVYQLRDSKSSDKSVCLFTDFDSQTNVSQSKDSDVYITDKTVLDMRSMDFKSNSAVAWSNKSDFACANAFNNSIIPEDTFFPSSDVPCDVKLVEKSFETDTNLNFQNLLVIVLRILLLKVAGFNLLMTLRLWSS
notes: also called CD33-CLL1-TCR; CD33-CLL1 TCR
binding result [3]: binds

B7: MAGEA4-reactive, HLA-A2-restricted TCR embedded with an scFv targeting human BCMA and a 2xG4S linker between the scFv and Va; TRB-P2A-BCMA.scFv-2xG4S-TRA (SEQ … (TCR)
TCR beta: B3 TCR beta
TCR alpha: DIVLTQSPPSLAMSLGKRATISCRASESVTILGSHLIHWYQQKPGQPPTLLIQLASNVQTGVPARFSGSGSRTDFTLTIDPVEEDDVAVYYCLQSRTIPRTFGGGTKLEIKGSTSGSGKPGSGEGSTKGQIQLVQSGPELKKPGETVKISCKASGYTFTDYSINWVKRAPGKGLKWMGWINTETREPAYAYDFRGRFAFSLETSASTAYLQINNLKYEDTATYFCALDYSYAMDYWGQGTSVTVSSGGGGSGGGGSAQKITQTQPGMFVQEKEAVTLDCTYDTSDPSYGLFWYKQPSSGEMIFLIYQGSYDQQNATEGRYSLNFQKARKSANLVISASQLGDSAMYFCAMSGGYTGGFKTIFGAGTRLFVKANIQNPDPAVYQLRDSKSSDKSVCLFTDFDSQTNVSQSKDSDVYITDKTVLDMRSMDFKSNSAVAWSNKSDFACANAFNNSIIPEDTFFPSSDVPCDVKLVEKSFETDTNLNFQNLLVIVLRILLLKVAGFNLLMTLRLWSS
notes: also called scFv-TCR; BCMA ScFv TCR
binding result [4]: binds

B8: scFv-based CAR targeting human BCMA (SEQ ID NO: 101) (other)
chain: DIVLTQSPPSLAMSLGKRATISCRASESVTILGSHLIHWYQQKPGQPPTLLIQLASNVQTGVPARFSGSGSRTDFTLTIDPVEEDDVAVYYCLQSRTIPRTFGGGTKLEIKGSTSGSGKPGSGEGSTKGQIQLVQSGPELKKPGETVKISCKASGYTFTDYSINWVKRAPGKGLKWMGWINTETREPAYAYDFRGRFAFSLETSASTAYLQINNLKYEDTATYFCALDYSYAMDYWGQGTSVTVSSAAATTTPAPRPPTPAPTIASQPLSLRPEACRPAAGGAVHTRGLDFACDIYIWAPLAGTCGVLLLSLVITLYCKRGRKKLLYIFKQPFMRPVQTTQEEDGCSCRFPEEEEGGCELRVKFSRSADAPAYQQGQNQLYNELNLGRREEYDVLDKRRGRDPEMGGKPRRKNPQEGLYNELQKDKMAEAYSEIGMKGERRRGKGHDGLYQGLSTATKDTYDALHMQALPPR
notes: Chimeric antigen receptor on transduced T cells; also called anti-BCMA CAR; BCMA scFv CAR
binding result [4]: binds

B9: VHH-TCR with a VHH added to the TRA separated by a 1xG4S; TRB-P2A-CD33.VHH-1xG4S-TRA (SEQ ID NO: 95) (TCR)
TCR beta: B3 TCR beta
TCR alpha: EVQLVESGGGEVQPGGSLRLSCAASRSSGIDVMGWYRQAPGKERELVAEISGVGDTNYAASLADRFTVSRDNAKNTVYLQMSSLRAEDTAVYYCNAHSFLDLVGAWGQGTLVTVKPGGGGSAQKITQTQPGMFVQEKEAVTLDCTYDTSDPSYGLFWYKQPSSGEMIFLIYQGSYDQQNATEGRYSLNFQKARKSANLVISASQLGDSAMYFCAMSGGYTGGFKTIFGAGTRLFVKANIQNPDPAVYQLRDSKSSDKSVCLFTDFDSQTNVSQSKDSDVYITDKTVLDMRSMDFKSNSAVAWSNKSDFACANAFNNSIIPEDTFFPSSDVPCDVKLVEKSFETDTNLNFQNLLVIVLRILLLKVAGFNLLMTLRLWSS
notes: also called VHH-TCR with 1G4S; VHH-TCR with one G4S
binding result [3]: binds
